Experimental data: US20230272011A1 (AVACTA LIFE SCIENCES, published 2023)
Positions count from the first letter of the chain named. Numbers in names are those of the source. Values belong to the binder of their own block, whether it stands above or below them.

Key:
[1] = target: T1, human PD-L1-Fc (R&D Systems) chimeric protein (human, UniProt Q9NZQ7 19-239); test: SPR (Biacore T200), PD-L1-Fc amine-coupled to CM5, Affimer analyte; apparent KD
T1 construct: Bought reagent; also called rhPD-L1-Fc; huPD-L1; Fc part of the bought chimera not given, not described
Procedure: (§1) ILF dimer production from E. coli was performed as described in Example 3. Briefly, protein was purified using three stages: affinity capture, IEX, and preparative SEC. […] To analyze PD-L1-Fc binding kinetics, a Biacore T200 kinetic analysis was performed using running buffer HBS-EP+ and series S sensor CM5 (GE Healthcare) chip Fc2 immobilized with PD-L1-Fc (R&D Systems) in 10 mM sodium acetate pH 4.0 using amine coupling reagents (GE Healthcare). The concentration titration of ILF AFFIMER® polypeptides was run as analyte at a flow rate of 30 μl/min. […] with 3 mM NaOH (GE healthcare) for 20 seconds at 20 μl/min flow rate. The Fc2-1 data blank was subtracted and fit to a 1:1 Langmuir binding model (Biacore evaluation software; GE) to calculate an apparent KD value.

[2] = target: T1, human PD-L1-Fc (R&D Systems) chimeric …; test: SPR (Biacore T200), PD-L1-Fc amine-coupled to CM5, Affimer analyte
Procedure: as §1

human serum albumin [3] = target: T2, human serum albumin (human, UniProt P02768 25-609); test: SPR (Biacore), immobilised HSA, Affimer analyte
T2 construct: mature; Bought protein; biotinylated in the Octet and HTRF assays; also called HSA; HuSA

human serum albumin [4] = target: T2, human serum albumin; test: SPR (Biacore) binding response to HSA at pH 7.4, Affimer at 50 nM
Description: Final clones were sequence-verified, produced from E. coli, and affinity purified as described in Example 3.

human serum albumin [5] = target: T2, human serum albumin; test: Biacore, immobilised HSA, pH 7.4
Procedure: Affinities for mouse, human, and cynomolgus serum were also measured at pH 7.4 for four (4) AFFIMER® binders using surface plasmon resonance (SPR) (FIG. 5, Table 5). […] A concentration titration of AFFIMER® monomers was run as analyte at a flow rate of 30 μl/min or 60 μl/min. Fc2-1, Fc3-1 and Fc4-1 kinetic data was blank subtracted and fit to a 1:1 Langmuir binding model (BIAcore Evalution software; GE) to calculate KD values.
The AFFIMER® polypeptides were produced and purified from E. coli as described in Example 3.

T1 sequence (Q9NZQ7 19-239, change not shown): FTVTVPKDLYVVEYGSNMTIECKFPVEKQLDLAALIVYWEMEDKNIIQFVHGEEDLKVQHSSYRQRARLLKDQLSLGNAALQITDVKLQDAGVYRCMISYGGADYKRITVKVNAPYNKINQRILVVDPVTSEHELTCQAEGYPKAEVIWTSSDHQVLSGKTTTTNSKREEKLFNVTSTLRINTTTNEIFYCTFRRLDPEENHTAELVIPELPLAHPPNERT

B1: AVA04-236 (designed binder)
chain: MIPRGLSEAKPATPEIQEIVDKVKPQLEEKTNETYGKLEAVQYKTQVLAKEHGPDSWWSTNYYIKVRAGDNKYMHLKVFNGPQEKNQWVEEADRVLTGYQVDKNKDDELTGF
Kd [1]: 5.43 nM | koff [2]: 0.00977 s⁻¹ | kon [2]: 1.8e+06 M⁻¹ s⁻¹

B2: AVA04-269 (designed binder)
chain: MIPRGLSEAKPATPEIQEIVDKVKPQLEEKTNETYGKLEAVQYKTQVLAKEYGPEEWWSTNYYIKVRAGDNKYMHLKVFNGPGDYEQVLIHADRVLTGYQVDKNKDDELTGF
Kd [1]: 1.68 nM | koff [2]: 0.00345 s⁻¹ | kon [2]: 2.05e+06 M⁻¹ s⁻¹

B3: AVA04-236 XT8 (designed binder)
chain: MIPRGLSEAKPATPEIQEIVDKVKPQLEEKTNETYGKLEAVQYKTQVLAKEHGPDSWWSTNYYIKVRAGDNKYMHLKVFNGPQEKNQWVEEADRVLTGYQVDKNKDDELTGFAEAAAKEAAAKEAAAKEAAAKEAAAKEAAAKMIPRGLSEAKPATPEIQEIVDKVKPQLEEKTNETYGKLEAVQYKTQVLANFFQRRWPGSTNYYIKVRAGDNKYMHLKVFNGPWKFRNTDRGADRVLTGYQVDKNKDDELTGFHHHHHH
Kd [1]: 4.57 nM | Kd (human serum albumin [3]): 9.5 nM | koff (human serum albumin [3]): 0.00252 s⁻¹ | kon (human serum albumin [3]): 267000 M⁻¹ s⁻¹ | koff [2]: 0.00695 s⁻¹ | kon [2]: 1.52e+06 M⁻¹ s⁻¹

B4: AVA04-269 XT12 (designed binder)
chain: MIPRGLSEAKPATPEIQEIVDKVKPQLEEKTNETYGKLEAVQYKTQVLAKEYGPEEWWSTNYYIKVRAGDNKYMHLKVFNGPGDYEQVLIHADRVLTGYQVDKNKDDELTGFAEAAAKEAAAKEAAAKEAAAKEAAAKEAAAKMIPRGLSEAKPATPEIQEIVDKVKPQLEEKTNETYGKLEAVQYKTQVLANFFQRRWPGSTNYYIKVRAGDNKYMHLKVFNGPWKFRNTDRGADRVLTGYQVDKNKDDELTGFHHHHHH
Kd [1]: 3.8 nM | Kd (human serum albumin [3]): 12.9 nM | koff (human serum albumin [3]): 0.00228 s⁻¹ | kon (human serum albumin [3]): 177000 M⁻¹ s⁻¹ | koff [2]: 0.00431 s⁻¹ | kon [2]: 1.14e+06 M⁻¹ s⁻¹

B5: HSA-41 D89A (designed binder)
chain: MIPRGLSEAKPATPEIQEIVDKVKPQLEEKTNETYGKLEAVQYKTQVLANFFQRRWPGSTNYYIKVRAGDNKYMHLKVFNGPWKFRNTARGADRVLTGYQVDKNKDDELTGFHHHHHH
binding response (human serum albumin [4]): 26.1

B17: HSA-41 F85A (designed binder)
chain: B5 chain with F85A, A89D
binding response (human serum albumin [4]): 26.6

B18: HSA-41 BK (designed binder)
chain: MIPRGLSEAKPATPEIQEIVDKVKPQLEEKTNETYGKLEAVQYKTQVLANFFQRRWPGSTNYYIKVRAGDNKYMHLKVFNGPWKFRNTDRGADRVLTGYQVDKNKDDELTGFAEAAAKEAAAKEAAAKEAAAKEAAAKEAAAKMIPRGLSEAKPATPEIQEIVDKVKPQLEEKTNETYGKLEAVQYKTQVLANFFQRRWPGSTNYYIKVRAGDNKYMHLKVFNGPWKFRNTDRGADRVLTGYQVDKNKDDELTGFHHHHHH
notes: also called ILF homodimer with rigid linker
Kd (human serum albumin [5]): 0.128 nM | koff (human serum albumin [5]): 0.000994 s⁻¹ | kon (human serum albumin [5]): 7.74e+06 M⁻¹ s⁻¹

B19: HSA-41 DI (designed binder)
chain: MIPRGLSEAKPATPEIQEIVDKVKPQLEEKTNETYGKLEAVQYKTQVLANFFQRRWPGSTNYYIKVRAGDNKYMHLKVFNGPWKFRNTDRGADRVLTGYQVDKNKDDELTGFGGGGSGGGGSGGGGSGGGGSGGGGSGGGGSMIPRGLSEAKPATPEIQEIVDKVKPQLEEKTNETYGKLEAVQYKTQVLANFFQRRWPGSTNYYIKVRAGDNKYMHLKVFNGPWKFRNTDRGADRVLTGYQVDKNKDDELTGFHHHHHH
notes: also called ILF homodimer with flexible linker; ILF dimer HSA-41 DI
Kd (human serum albumin [5]): 0.201 nM | koff (human serum albumin [5]): 0.000959 s⁻¹ | kon (human serum albumin [5]): 4.77e+06 M⁻¹ s⁻¹

B20: AVA04-236 XT7 (designed binder)
chain: MIPRGLSEAKPATPEIQEIVDKVKPQLEEKTNETYGKLEAVQYKTQVLAKEHGPDSWWSTNYYIKVRAGDNKYMHLKVFNGPQEKNQWVEEADRVLTGYQVDKNKDDELTGFGGGGSGGGGSGGGGSGGGGSGGGGSGGGGSMIPRGLSEAKPATPEIQEIVDKVKPQLEEKTNETYGKLEAVQYKTQVLANFFQRRWPGSTNYYIKVRAGDNKYMHLKVFNGPWKFRNTDRGADRVLTGYQVDKNKDDELTGFHHHHHH
Kd [1]: 4.86 nM | Kd (human serum albumin [3]): 13.3 nM | koff (human serum albumin [3]): 0.00336 s⁻¹ | kon (human serum albumin [3]): 253000 M⁻¹ s⁻¹ | koff [2]: 0.00763 s⁻¹ | kon [2]: 1.57e+06 M⁻¹ s⁻¹

B21: AVA04-269 XT11 (designed binder)
chain: MIPRGLSEAKPATPEIQEIVDKVKPQLEEKTNETYGKLEAVQYKTQVLAKEYGPEEWWSTNYYIKVRAGDNKYMHLKVFNGPGDYEQVLIHADRVLTGYQVDKNKDDELTGFGGGGSGGGGSGGGGSGGGGSGGGGSGGGGSMIPRGLSEAKPATPEIQEIVDKVKPQLEEKTNETYGKLEAVQYKTQVLANFFQRRWPGSTNYYIKVRAGDNKYMHLKVFNGPWKFRNTDRGADRVLTGYQVDKNKDDELTGFHHHHHH
Kd [1]: 4.45 nM | Kd (human serum albumin [3]): 15.5 nM | koff (human serum albumin [3]): 0.00234 s⁻¹ | kon (human serum albumin [3]): 151000 M⁻¹ s⁻¹ | koff [2]: 0.00354 s⁻¹ | kon [2]: 796000 M⁻¹ s⁻¹

B22: AVA04-261 (designed binder)
chain: MIPRGLSEAKPATPEIQEIVDKVKPQLEEKTNETYGKLEAVQYKTQVLAHAYGPRDWDSTNYYIKVRAGDNKYMHLKVFNGPPADHVLEEAADRVLTGYQVDKNKDDELTGF
Kd [1]: 2.95 nM | koff [2]: 0.0109 s⁻¹ | kon [2]: 3.68e+06 M⁻¹ s⁻¹

Other lines, results leading:

binding response (human serum albumin [4]): 6.5
B6: HSA-41 G58A (designed binder)
chain: B5 chain with G58A, A89D

binding response (human serum albumin [4]): 23.2
B7: HSA-41 P57A (designed binder)
chain: B5 chain with P57A, A89D

binding response (human serum albumin [4]): 25.8
B8: HSA-41 N87A (designed binder)
chain: B5 chain with N87A, A89D

binding response (human serum albumin [4]): 11.9
B9: HSA-41 R54A (designed binder)
chain: B5 chain with R54A, A89D

binding response (human serum albumin [4]): 13
B10: HSA-41 N50A (designed binder)
chain: B5 chain with N50A, A89D

binding response (human serum albumin [4]): 23.5
B11: HSA-41 Q53A (designed binder)
chain: B5 chain with Q53A, A89D

binding response (human serum albumin [4]): 17.2
B12: HSA-41 R90A (designed binder)
chain: B5 chain with A89D, R90A

binding response (human serum albumin [4]): 17.8
B13: HSA-41 G91A (designed binder)
chain: B5 chain with A89D, G91A

binding response (human serum albumin [4]): 19.1
B14: HSA-41 R86A (designed binder)
chain: B5 chain with R86A, A89D

binding response (human serum albumin [4]): 23.5
B15: HSA-41 K84A (designed binder)
chain: B5 chain with K84A, A89D

binding response (human serum albumin [4]): 27.9
B16: HSA-41 T88A (designed binder)
chain: B5 chain with T88A, A89D
